Data published in PMC6030132, “Tailoring recombinant lipases: keeping the His-tag favors esterification reactions, removing it favors hydrolysis reactions” (Scientific Reports, 2018).

Columns and labels:
[1] = system: T1, CCCCCCCCCC(=O)Oc1ccc([N+](=O)[O-])cc1; test: purified protein; format: biochemical, uncultured bacterium; conditions: apparent constant, free enzyme, 50 mM Tris-HCl pH 7.5, 1 mM CaCl2, 0.6% Triton X-100, 4% isopropanol, 1% acetonitrile, 25 °C, 95% confidence interval in parentheses
T1 construct: full-length lipC12 product (293 residues) from pTEV5lipC12, E. coli BL21(DE3)

[2] = system: T2, CCCCCCCCCC(=O)Oc1ccc([N+](=O)[O-])cc1; test: purified protein; format: biochemical, uncultured bacterium; conditions: apparent constant, free enzyme, 50 mM Tris-HCl pH 7.5, 1 mM CaCl2, 0.6% Triton X-100, 4% isopropanol, 1% acetonitrile, 25 °C, 95% confidence interval in parentheses
T2 construct: full-length lipC12 product (293 residues) from pTEV5lipC12, E. coli BL21(DE3); His-tag cut off with TEV protease, GASH left at N-terminus

Substance	Km [1]	kcat [1]	kcat/Km [1]	Km [2]	kcat [2]	kcat/Km [2]
HisTEVS-LipC12 (uncultured bacterium)	1.77 (1.56–2.02) mM	2.53 s⁻¹	1430 M⁻¹ s⁻¹			
cLipC12 (uncultured bacterium)				1.33 (1.17–1.51) mM	2.52 s⁻¹	1900 M⁻¹ s⁻¹
